Measured values from patent publication US20230416343A1.
Like-named read-outs stand apart in the source and are kept apart here.

B1: antibody S1D2 (antibody, V domains shown)
VH: EVQLVESGGGLIQPGGSLRLSCAASGFTVSSNYMSWVRQAPGKGLEWVSIIYPGGSTNYADSVKGRFTISRDNSRNTLYLQMNSLRAEDTAVYYCARELGYYGMDVWGQGTTVTVSS
VL: DIQMTQSPSSVSASVGDRVTITCRASQGISTWLVWYQQKPGKAPNLLIYGASSLQSGVPSRFSGSGSGTDFTLTISSLQPEDFATYYCQQANSFPYTFGQGTKLEIK
B2: S1D2LALA antibody (STI-1499) (antibody, V domains shown)
VH: B1 VH
VL: B1 VL

Columns and labels:
Settings in all cases: remark: other sources report otherwise
[1] = target: T1, Recombinant SARS-CoV2 RBD having a carboxy terminal his tag (SARS-CoV-2), P0DTC2
[2] = target: T1, Recombinant SARS-CoV2 RBD having a …; remark: listed apart in the source
[3] = target: SARS-CoV-2 variant spike protein deletion mutant del 243-244 on HEK293 cells (SARS-CoV-2), P0DTC2
[4] = target: SARS-CoV-2 variant spike protein E484K on HEK293 cells (SARS-CoV-2), P0DTC2
[5] = target: SARS-CoV-2 variant spike protein S494P on HEK293 cells (SARS-CoV-2), P0DTC2
[6] = target: SARS-CoV-2 variant spike protein F490S on HEK293 cells (SARS-CoV-2), P0DTC2
[7] = target: T2, SARS-CoV-2 D614G mutant spike protein expressed on HEK293 cells (SARS-CoV-2), P0DTC2
[8] = target: T3, SARS-CoV-2 spike protein expressed on HEK293 cells (SARS-CoV-2), P0DTC2
[9] = target: T2, SARS-CoV-2 D614G mutant spike protein …; remark: listed apart in the source
[10] = target: T3, SARS-CoV-2 spike protein expressed on …; test: flow cytometry on HEK293 cells expressing the spike; table 'spike'

| Binder | Kd [1] | Kd [2] | EC50 [3] | EC50 [4] | EC50 [5] | EC50 [6] | EC50 [7] | EC50 [8] | EC50 [9] | Maxi % [9] | Maxi % [10] |
| --- | --- | --- | --- | --- | --- | --- | --- | --- | --- | --- | --- |
| B1 | 46.2 nM | 46 nM |  |  |  |  |  |  |  |  |  |
| B2 |  |  | 180 µg/mL | 140 µg/mL | 194 µg/mL | 38 µg/mL | 70 µg/mL | 0.1 µg/mL | 0.13 µg/mL | 100% | 100% |
